Our source for the Ki values is paper PMC3025530.

One may read the Ki as a dissociation constant, usually derived from enzyme kinetics or from competition with a known ligand.

For assay [1], the target named is ADAM12-S (shorter secreted form of ADAM12), full-length (human) (UniProt O43184). Kind of assay: enzyme inhibition kinetics.
In assay [2] the target is ADAM12-Cat (truncated ADAM12 protein consisting of only the pro and catalytic domains) (human) (UniProt O43184). Kind of assay: enzyme inhibition kinetics.

Regarding N-TIMP-1[T98L] (domain or fragment), the Ki in assay [1] is 21.7 nM; in assay [2], 11.2 nM. The like results for “N-TIMP-1[TIMP-2-ABloop] (domain or fragment)” were, in that order, > 500 nM and 247 nM. In assay [1], “N-TIMP-1[TIMP-3-ABloop] (domain or fragment)” showed a Ki of 66 nM. N-TIMP-1[V4A] (domain or fragment) gave a Ki in assay [1] of 190 nM. Substance N-TIMP-1[V4S] (domain or fragment) returned a Ki in assay [1] of 122 nM.

With “N-TIMP-1^TACE (V4S/V69L/T98L/TIMP-3-ABloop) (domain or fragment)”, the Ki was determined as 16.4 nM in assay [1] and 1.9 nM in assay [2].

Regarding “N-TIMP-2 (N-terminal domain of TIMP-2), wild-type (domain or fragment)”, the results for the Ki in assay [1] and in assay [2] were 69.7 nM and 5.5 nM, respectively. As for “N-TIMP-2-ΔABloop (N-TIMP-2 with the AB-loop deleted) (domain or fragment)”, the Ki is 28.1 nM in assay [1] and 2.5 nM in assay [2]. In the case of “N-TIMP-2^TACE (S2T/A70S/V71L/TIMP-3-ABloop) (domain or fragment)”, in assay [2], the Ki was 0.65 nM.

In assay [1], “N-TIMP-2^TACE[F34G] (domain or fragment)” registered a Ki of 18 nM. Take “N-TIMP-2^TACE[L100E] (domain or fragment)”: the Ki in assay [1] is 22 nM; in assay [2], 4.1 nM.
